According to patent US20220098289A1 (CONSEJO SUPERIOR DE INVESTIGACIONES CIENT FICAS, published 2022):

Target: T1, human Aβ1-42 peptides (human, UniProt P05067 672-713)
T1 construct: domain: Aβ1-42; Synthetic peptide prepared to obtain minimal aggregation; also called Aβ peptides
Assay: recombinant proteins mixed in vitro for 24 hrs at 37° C., then Western blot
Protocol: Protein-protein binding assays. Nanomolar concentrations of recombinant human SFRP1 (RD cat: 5396-SF-025) and human Aβ1-42 peptides (Invitrogen, cat: 03-111, prepared to obtain minimal peptide aggregation) were mixed in protein Lobind tubes (Eppendorf) for 24 hrs at 37° C. NuPAGE LDS sample buffer (4×) was added to the tubes, boiled for 5 min and subjected to Western blot analysis. Microplate-based solid-phase protein-protein binding assays was performed by immobilizing in wells 200 ng/well of either human Aβ1-42 peptides, BSA, used as a […] control because previously described as an Aβ interactor; or heparin, a described SFRP1 binding partner. Immobilization was performed overnight at 4° C. The wells were then washed with TBS 3× and incubated with two different SFRP1 concentrations for 2 hrs at RT. In the converse experiment, BSA, heparin or SFRP1 were immobilized overnight at 4° C. and two different concentrations of Aβ1-42 were added for 2 hrs at RT. The wells were washed 6× in TBS and 2× sample buffer containing β-mercaptoethanol was added to the well. The content was recovered by scrapping, boiled for 5 min and analyzed by SDS-PAGE followed by WB using anti-Sfrp1 or anti-Aβ antibodies, respectively.

T1 sequence (P05067 672-713 limits assumed): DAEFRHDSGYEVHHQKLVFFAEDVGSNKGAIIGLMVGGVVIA

B1: human recombinant SFRP1 (other, UniProt Q8N474 32-314, looked up)
chain: SEYDYVSFQSDIGPYQSGRFYTKPPQCVDIPADLRLCHNVGYKKMVLPNLLEHETMAEVKQQASSWVPLLNKNCHAGTQVFLCSLFAPVCLDRPIYPCRWLCEAVRDSCEPVMQFFGFYWPEMLKCDKFPEGDVCIAMTPPNATEASKPQGTTVCPPCDNELKSEAIIEHLCASEFALRMKIKEVKKENGDKKIVPKKKKPLKLGPIKKKDLKKLVLYLKNGADCPCHQLDNLSHHFLIMGRKVKSQYLLTAIHKWDKKNKEFKNFMKKMKNHECPTFQSVFK
notes: Bought recombinant protein; also called hSFRP1; recombinant hSFRP1
binding result: binds
